# Experimental data as given in patent US20160068860A1, “TRANSGENIC PLANTS” (CONSEJO SUPERIOR DE INVESTIGACIONES CIENTIFICAS (CSIC), priority 2013, published 2016).
# Residue numbers refer to the chain shown, from its start. In names and notes the source's numbering stands.
# B1: PYL4H82R V97A (AtPYL H82 and V97A) (receptor)
# chain: MLAVHRPSSAVSDGDSVQIPMMIASFQKRFPSLSRDSTAARFHTHEVGPNQCCSAVIQEISAPISTVWSVVRRFDNPQAYKRFLKSCSVIGGDGDNAGSLRQVHVVSGLPAASSTERLDILDDERHVISFSVVGGDHRLSNYRSVTTLHPSPISGTVVVESYVVDVPPGNTKEETCDFVDVIVRCNLQSLAKIAENTAAESKKKMSL
# notes: also called PYL4H82R (found combined with V97A)
# B2: PYL4A194T: AtPYL4 ABA receptor mutant polypeptide with A194T substitution (SEQ ID NO. 60; nucleic acid SEQ ID NO: 55); also over-expressed in plants (protein, listed as Arabidopsis thaliana)
# chain: B1 chain with R82H, A97V, A194T
# Tests used:
# PP2CA = assay: BiFC assay with PP2CA in N. benthamiana leaves; assay type: cell-based; settings: no exogenous ABA
# Method: Experiments were performed basically as described by Voinnet et al., (2003). The different binary vectors described above where introduced into Agrobacterium tumefaciens C58C1 (pGV2260) (Deblaere et al., 1985) by electroporation and transformed cells were selected in LB plates supplemented with kanamycin (50 μg/ml). Then, they were grown in liquid LB medium to late exponential phase and cells were harvested by centrifugation and resuspended in 10 mM morpholinoethanesulphonic (MES) acid-KOH pH 5.6 containing 10 mM MgCl2 and […] acetosyringone to an OD600 nm of 1. These cells were mixed with an equal volume of Agrobacterium C58C1 (pCH32 35S:p19) expressing the silencing suppressor p19 of tomato bushy stunt virus (Voinnet et al., 2003) so that the final density of Agrobacterium solution was about 1. Bacteria were incubated for 3 h at room temperature and then injected into young fully expanded leaves of 4-week-old N. benthamiana plants. Leaves were examined after 3-4 days under a Leica TCS-SL confocal microscope and laser scanning confocal imaging system. Quantification of fluorescent protein signal was done as described (Gampala et al., 2007) using the National Institutes of Health (NIH) Image software ImageJ v1.37. […]
# [1] = tested on: Arabidopsis thaliana plants; assay: Root growth assay of OE lines on ABA; assay type: in vivo; settings: 10 μM ABA, 10 d after transfer
# Method: Seedlings were grown on vertically oriented MS plates for 4 to 5 days. Afterwards, 20 plants were transferred to new MS plates lacking or supplemented with the indicated concentrations of ABA. The plates were scanned on a flatbed scanner after 10-d to produce image files suitable for quantitative analysis of root growth using the NIH software ImageJ v1.37. As an indicator of shoot growth, the maximum rosette radius was measured.
# [2] = tested on: Barley plants (cv. Golden Promise); assay type: in vivo, Hordeum vulgare; settings: for vegetative growth under non-stress conditions: in vivo; for drought tolerance compared to non-transformed Golden promise wt plants / fresh weight/leaf after drought / survival and vegetative growth after drought and rewatering / weight/plant after drought and rewatering: transgenic barley; for drought tolerance compared to non-transformed Golden promise wt plants: 12-d period of drought; for fresh weight/leaf after drought / survival and vegetative growth after drought and rewatering / weight/plant after drought and rewatering: compared to non-transformed plants
# Text: Transgenic barley (cv. Golden Promise) expressing either Arabidopsis PYL4^A194T or PYL4^H82R V97A open reading frame driven by the Ubiquitin promoter from the pBract214 vector was generated via Agrobacterium-mediated transformation (Bartlett et al. 2008).
# The nucleotide sequence encoding either PYL4^A194T or PYL4^H82R V97A open reading frame was recombined by LR reaction from pCR8/GW/TOPO entry vector into the Gateway compatible pBract214 destination vector. The sequence introduced in barley is the Arabidopsis open reading frame carrying the indicated mutations. Also, the second codon (of the sequence as shown in SEQ ID NO; 2) was modified to GTT to get a Ncol site to facilitate cloning).
# Immature embryos were inoculated with Agrobacterium strain AGL1 containing the over-expression vector pBract214 into which the genes of interest had been cloned. pBract214 also contains the hygromycin resistance gene to allow selection of transgenic tissues and plants. Following co-cultivation for 3 days, immature embryos were transferred to selective callus induction medium containing hygromycin to allow the selection of transformed tissue and timentin to remove Agrobacterium. After a total of 6 weeks callus induction, callus were moved to a transition medium in low light and then 2 weeks later to regeneration medium under full light. Regenerated plants were transferred to rooting tubes when shoots reached 2-3 cm in length. Plants with strong roots in hygromycin containing medium were then established in soil and grown to maturity under controlled environment conditions in order to obtain T1 seed progeny.
# Barley plants (cv. Golden Promise) were routinely grown under greenhouse conditions (40-50% relative humidity, 23-24° C.) in pots containing a 1:3 vermiculite-soil mixture. Pots were grouped in trays where water was maintained approximately 0.2-1 cm above the bottom of the tray. For drought (D) stress experiments, four-week-old plants were watered with tap water for 12-d (minus D, water maintained 0.2-1 cm above the bottom of the tray) or were submitted to drought for 12-d (plus D, water withdrawal). One flag leaf per plant (10 individual plants for each genetic background, minus and plus D treatment) was weighed in order to obtain its fresh weight and dried for 16 h at 70° C. and weighed again to obtain its dry weight. After the 12 day drought period, plants that had been submitted to drought were re-watered (RW, water 1 cm above the bottom of the tray for 2-d, then water withdrawal) and weight per plant (destructive measurement to obtain above ground biomass) was obtained after 5-d (plus D, plus RW). The results obtained are described in FIGS. 9, 10 and 11.
Molecule,localization of interaction with PP2CA (PP2CA),ABA-mediated inhibition of root growth [1],vegetative growth under non-stress conditions [2],drought tolerance compared to non-transformed Golden promise wt plants [2],fresh weight/leaf after drought [2],survival and vegetative growth after drought and rewatering [2],weight/plant after drought and rewatering [2]
"PYL4: AtPYL4 wild type ABA receptor polypeptide (SEQ ID NO:3, At2g38310) [reference compound]",localized mostly to the nucleus,enhanced ABA-mediated inhibition of root growth compared to non-transformed plants,,,,,
B1,,,did not impair vegetative growth,enhanced drought tolerance,higher fresh weight/leaf,enhanced survival and vegetative growth,higher weight/plant
B2,relatively much more abundant in the cytosol compared to PYL4,enhanced ABA-mediated inhibition of root growth compared to non-transformed plants,did not impair vegetative growth,enhanced drought tolerance,higher fresh weight/leaf,enhanced survival and vegetative growth,higher weight/plant
